Results reported in publication PMC6702468.

Substrate: O[Si](O)(O)O
Assay: cells, lysate or membranes
Settings: unit not printed beside Km, taken from [Si]ext in mM

Row | Protein | Km (3 hr exposure in modified Barth's solution pH 7.4, room temperature, H2O-injected background subtracted, transport, R2 = 0.90, pH 7.4) [mM] | Km (otherwise as WT, paper states a linear equation fits best (R2 = 0.99) and Km lies far above the tested range (up to 2 mM)) [mM]
1 | NsLsi1 (NsNIP2-1) (Nicotiana sylvestris) (protein) MESERGNSTENKKPNELVSVENPKSNLSFRYILIFFQEHYPPGFLKKVIAEVIATYLLVFVTCGAAAISASDEHKVSRLGASVAGGLIVTVMIYAVGHISGAHMNPAVTFAFAAVRHFPWRQVPPYAAAQLTGATSAAFTLRVLLHPIKHVGTTTPSGSDIQALIMEIVVTFSMMFITSAVATDTKAIGELAGMAVGSAVCITSILAGPVSGGSMNPARTIGPAMASNDYRGIWVYIIGPVCGTLLGAWSYNFIRVTDKPVHAIAPGQSFSFKLRRMKSNDEEQGV | 0.94 ± 0.30 | –
2 | NsLsi1 (NsNIP2-1) (Nicotiana sylvestris; P125F) (protein) MESERGNSTENKKPNELVSVENPKSNLSFRYILIFFQEHYPPGFLKKVIAEVIATYLLVFVTCGAAAISASDEHKVSRLGASVAGGLIVTVMIYAVGHISGAHMNPAVTFAFAAVRHFPWRQVPFYAAAQLTGATSAAFTLRVLLHPIKHVGTTTPSGSDIQALIMEIVVTFSMMFITSAVATDTKAIGELAGMAVGSAVCITSILAGPVSGGSMNPARTIGPAMASNDYRGIWVYIIGPVCGTLLGAWSYNFIRVTDKPVHAIAPGQSFSFKLRRMKSNDEEQGV | – | 12.83 ± 8.49
